Measured values taken from patent publication US6034062.

Key:
[1] = target: BMP-9 receptors expressed on HepG2 cells (ATCC HB8065); experiment: 125I-BMP-9 binding to HepG2 cells, high affinity sites
[2] = target: BMP-9 receptors expressed on HepG2 cells (ATCC HB8065)
[3] = target: plasma membrane preparation from adult rat kidney; experiment: [125I]rhBMP-9 displacement profile on rat kidney plasma membranes
[4] = target: BMP-9 receptors expressed on HepG2 cells (ATCC HB8065); experiment: 125I-BMP-9 binding to confluent HepG2 cells, displacement by unlabelled BMP-9, Scatchard analysis
[5] = target: plasma membrane preparation from adult rat lung; experiment: [125I]rhBMP-9 displacement profile on rat lung plasma membranes

B1: recombinant human BMP-9 (CHO-derived, mature) (ligand)
chain: TRECSRSCPRTAPQRQVRAVTRRTRMAHVAAGSTLARRKRSAGAGSHCQKTSLRVNFEDIGWDSWIIAPKEYEAYECKGGCFFPLADDVTPTKHAIVQTLVHLKFPTKVG
modifications: 125I-iodinated as tracer; unlabelled BMP-9 used as the displacing ligand
Binder B1 has a Kd [1] of 0.27 nM, a 3H-thymidine incorporation in HepG2 cells [2] of 5 fold and an ED50 of 3H-thymidine incorporation in HepG2 cells [2] of 10 ng/mL. The Kd [3] was 0.3 nM, the Kd [4] was 0.3 nM and the Kd [5] was 0.6 nM.
